Assay results reported in patent US20200171174A1 (Astellas, published 2020).

B1: P10-2 Fab (Fab, V domains shown)
VH: QVQLVQSGAEVKKPGASVKVSCKASGYTFTNYGLSWVRQAPGQGLEWMGENHPGSGIIYHNEKFRGRVTLTADRSTSTAYMELSSLRSEDTAVYYCARSSGTRGFDYWGQGTLVTVSS
VL: DVVMTQTPLSLSVTPGQPASISCRSSQSIVHSNGNTYLEWYLQKPGQSPQLLIYRVSNRFSGVPDRFSGSGSGTDFTLKISRVEAEDVGVYYCFQGSHGPWTFGQGTKLEIKR
modifications: heavy chain N-terminal glutamine modified into pyroglutamic acid in a great majority of purified antibodies
notes: expressed in Expi293F cells, purified on KappaSelect; also called anti-human MUC1 antibody Fab fragment P10-2
B2: P10-1 Fab (Fab, V domains shown)
VH: QVQLVQSGAEVKKPGASVKVSCKASGYTFTNYGLSWVRQAPGQGLEWMGENHPGSGIIYHNEKFRGRVTLTADRSTSTAYMELSSLRSEDTAVYYCARSSGTRGFAYWGQGTLVTVSS
VL: DVVMTQTPLSLSVTPGQPASISCRSSQSIVHSNGNTYLEWYLQKPGQSPQLLIYRVSNRFSGVPDRFSGSGSGTDFTLKISRVEAEDVGVYYCFQGSHGPWTFGQGTKLEIKR
notes: expressed in Expi293F cells, purified on KappaSelect; also called anti-human MUC1 antibody Fab fragment P10-1

Molecular target: T1, human cancer-specific MUC1 (human, UniProt P15941 24-1255)
T1 construct: whole, on cells; Endogenous MUC1 with cancer-specific incomplete O-glycosylation on cancer cells; also called Mucin 1; human MUC1
Test: Cell ELISA on formalin-fixed T-47D cells, HRP anti-human Ig kappa, luminescence
Protocol: Specifically, breast cancer cell line T-47D cells (purchasable from ATCC; HTB-133) expressing human cancer-specific MUC1 were inoculated at 0.75×10⁴ cells per well to a 96-well ELISA plate coated with collagen I, and cultured overnight. […] Then, a horseradish peroxidase (HRP)-labeled goat anti-human Igκ antibody (Southern Biotechnology Associates, Inc.) was reacted as a secondary antibody. ECL Prime Western Blotting Detection Reagent (GE Healthcare Japan Corp.) was added thereto for luminescence, and the degree of the luminescence was examined.

Row | Binder | binding activity relative to 1B2 Fab [times]
1 | B1 | ≥ 10
2 | B2 | ≥ 10
